± gives the uncertainty stated by the source.
Experiment: self-splicing fitness, log relative to wild type (ln ratio); higher = more splicing; Tetrahymena group I intron in knt gene, E. coli kanamycin selection, DiMSum; sequences stand for … in CUCUCU…GGAGGGAAAAGUUAUCAGGCAUGCACCUGGUAGCUAGUCUUUAAACCAAUAGAUUGCAUCGGUUUAAAAGGCAAGACCGUCAAAUUGCGGGAAAGGGGUCAACAGCCGUUCAGUACCAAGUCUCAGGGGAAACUUUGAGAUGGCCUUGCAAAGGGUAUGGUAAUAAGCUGACGGACAUGGUCCUAACCACGCAGCCAAGUCCUAAGUCAACAGAUCUUCUGUUGAUAUGGAUGCAGUUCACAGACUAAAUGUCGGUCGGGGAAGAUGUAUUCUUCUCAUAAGAUAUAGUCGGACCUCUCCUUAAUGGGAGCUAGCGGAUGAAGUGAUGCAACACUGGAGCCGCUGGGAACUAAUUUGUAUGCGAAAGUAUAUUGAUUAGUUUUGGAGUACUCGUGGUCG
In short: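 Pooled colonies went to amplicon sequencing on an Illumina HiSeq 2500 after six replicate transformations. The plates were LB agar with 100 μg/mL carbenicillin, 50 μM IPTG and 0.2% rhamnose, with or without 25 μg/mL kanamycin, incubated overnight at 37°C or 30°C. The E. coli BL21(DE3) library had all eight P1ex-region intron nucleotides randomised, the intron placed in the knt kanamycin-resistance gene on pET-22b(+). DiMSum fitness is the error-weighted combination of replicate fold changes, kanamycin against none, normalised to wild type.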

Row | Sequence | self-splicing fitness (ln) (30 °C) | self-splicing fitness (ln) (37 °C)
1 | GGUUAGCAAUAUUACGCACA | -0.431 ± 0.1 | -0.339 ± 0.14
2 | AAAUAGCAAUAUUACGCUAC | – | -1.68 ± 0.3
3 | AAGUAGCAAUAUUACGACUG | 0.323 ± 0.082 | -0.593 ± 0.11
4 | GUCGAGCAAUAUUACGACUG | -3.17 ± 0.45 | -0.232 ± 0.18
5 | ACCAAGCAAUAUUACGUCAG | -3.58 ± 0.15 | -1.56 ± 0.1
6 | UGGAAGCAAUAUUACGUCUU | -0.99 ± 0.11 | -0.129 ± 0.13
7 | UGGCAGCAAUAUUACGCCGA | -0.136 ± 0.092 | 0.134 ± 0.1
8 | CGUAAGCAAUAUUACGCGGA | -3.23 ± 0.19 | -1.84 ± 0.16
9 | CAAUAGCAAUAUUACGAGAU | -2.72 ± 0.12 | -2.82 ± 0.17
10 | CCGCAGCAAUAUUACGCACG | -0.993 ± 0.097 | -0.578 ± 0.11
11 | AGCAAGCAAUAUUACGCCGG | -3.71 ± 0.37 | -1.81 ± 0.24
12 | AAAUAGCAAUAUUACGUGAA | -3.08 ± 0.12 | -0.845 ± 0.097
13 | CCGAAGCAAUAUUACGACAU | -3.977 ± 0.028 | -2.82 ± 0.04
14 | AUCCAGCAAUAUUACGCGAG | -0.838 ± 0.065 | -0.241 ± 0.078
15 | CGGUAGCAAUAUUACGGCUU | -0.935 ± 0.087 | 0.239 ± 0.12
16 | GCCGAGCAAUAUUACGGUAA | -0.184 ± 0.11 | -0.414 ± 0.091
17 | CUUCAGCAAUAUUACGGCCU | – | -1.66 ± 0.38
18 | UACUAGCAAUAUUACGAGAU | -2.46 ± 0.23 | -1.54 ± 0.28
19 | UAGCAGCAAUAUUACGACCG | -0.887 ± 0.13 | -0.0437 ± 0.22
20 | GAAAAGCAAUAUUACGGGAC | -1.06 ± 0.12 | -2.06 ± 0.18
21 | ACGUAGCAAUAUUACGUAAC | -3.5 ± 0.37 | -2.46 ± 0.48
22 | AGCGAGCAAUAUUACGCUCA | -2.59 ± 0.21 | -2.5 ± 0.26
23 | CCGAAGCAAUAUUACGGCGU | -3.6 ± 0.17 | -2.79 ± 0.17
24 | CGAGAGCAAUAUUACGCGGC | – | -1.9 ± 0.41
25 | CAGUAGCAAUAUUACGCUCA | -0.118 ± 0.13 | 0.5 ± 0.17

Row | Sequence | self-splicing fitness (ln) (30 °C) | self-splicing fitness (ln) (37 °C)
26 | AAUCAGCAAUAUUACGGAAG | -1.75 ± 0.11 | -0.948 ± 0.12
27 | AAAAAGCAAUAUUACGUUGU | -3.71 ± 0.15 | -2.01 ± 0.14
28 | UAACAGCAAUAUUACGUCCG | -0.0665 ± 0.086 | 0.0833 ± 0.12
29 | UAUCAGCAAUAUUACGCGCC | -1.34 ± 0.18 | -0.193 ± 0.26
30 | GACCAGCAAUAUUACGCAGC | -0.913 ± 0.11 | -0.292 ± 0.13
31 | AUAUAGCAAUAUUACGUUGU | -3.79 ± 0.29 | –
32 | CCUUAGCAAUAUUACGUCAA | -2.87 ± 0.33 | –
33 | AUCUAGCAAUAUUACGCUUC | -3.91 ± 0.36 | -2.03 ± 0.23
34 | AGUUAGCAAUAUUACGAUCC | 0.593 ± 0.14 | -0.367 ± 0.15
35 | UUUAAGCAAUAUUACGUGAC | -3.33 ± 0.21 | -2.11 ± 0.21
36 | UUUUAGCAAUAUUACGUUGA | – | -1.8 ± 0.36
37 | GAAAAGCAAUAUUACGGACU | 0.147 ± 0.069 | 0.272 ± 0.087
38 | CAGAAGCAAUAUUACGUUAG | -0.919 ± 0.077 | -0.262 ± 0.097
39 | UGUCAGCAAUAUUACGCAGC | -3.7 ± 0.32 | -0.622 ± 0.24
40 | AUGGAGCAAUAUUACGGUCA | -2.19 ± 0.24 | -0.926 ± 0.2
41 | ACUAAGCAAUAUUACGGACA | -0.625 ± 0.094 | -0.362 ± 0.12
42 | GGCUAGCAAUAUUACGAACG | -0.636 ± 0.066 | -0.168 ± 0.094
43 | UGCGAGCAAUAUUACGUGAU | -2.47 ± 0.23 | -2.09 ± 0.4
44 | AUAAAGCAAUAUUACGUAAG | -2.08 ± 0.1 | -0.84 ± 0.11
45 | CAAUAGCAAUAUUACGGCUU | -2.53 ± 0.13 | -1.42 ± 0.13
46 | UGACAGCAAUAUUACGUCCU | -0.124 ± 0.076 | 0.379 ± 0.099
47 | AACGAGCAAUAUUACGGACA | -2.38 ± 0.12 | -1.57 ± 0.11
48 | CUACAGCAAUAUUACGCGUG | -1.83 ± 0.076 | -1.03 ± 0.089
49 | CUAGAGCAAUAUUACGAUGG | -0.193 ± 0.11 | 0.418 ± 0.14
50 | GUUUAGCAAUAUUACGGUGG | – | -2.33 ± 0.31

Row | Sequence | self-splicing fitness (ln) (30 °C) | self-splicing fitness (ln) (37 °C)
51 | UUGUAGCAAUAUUACGCUUU | – | -2.81 ± 0.31
52 | UAAUAGCAAUAUUACGGCGA | -1.6 ± 0.21 | -0.266 ± 0.22
53 | UGACAGCAAUAUUACGUAGU | -3 ± 0.17 | -1.22 ± 0.14
54 | CACUAGCAAUAUUACGGAUU | -4.22 ± 0.2 | -2.28 ± 0.12
55 | GAUUAGCAAUAUUACGCUAU | -2.97 ± 0.41 | –
56 | UCUAAGCAAUAUUACGAUGU | -0.365 ± 0.06 | -0.355 ± 0.074
57 | GGUUAGCAAUAUUACGUUCG | -0.206 ± 0.089 | 0.151 ± 0.11
58 | GAUCAGCAAUAUUACGAGUG | -1.2 ± 0.06 | -1.21 ± 0.079
59 | GACUAGCAAUAUUACGUGCU | -3.61 ± 0.16 | -1.9 ± 0.12
60 | AACAAGCAAUAUUACGCACC | -0.717 ± 0.097 | -0.435 ± 0.14
61 | UAUUAGCAAUAUUACGGUUG | -0.953 ± 0.15 | -0.107 ± 0.17
62 | UCGCAGCAAUAUUACGGAUG | -1.44 ± 0.13 | -2.55 ± 0.16
63 | GGCGAGCAAUAUUACGGGCA | -0.695 ± 0.15 | -0.194 ± 0.15
64 | AUUGAGCAAUAUUACGAAGA | -2.47 ± 0.25 | -2.23 ± 0.35
65 | AAAUAGCAAUAUUACGGAGG | -3.39 ± 0.2 | -2.86 ± 0.26
66 | UAUUAGCAAUAUUACGCGUA | -1.95 ± 0.16 | -0.462 ± 0.12
67 | CAGUAGCAAUAUUACGCUCU | -2.44 ± 0.18 | -0.957 ± 0.15
68 | CCGCAGCAAUAUUACGCCUG | -1.69 ± 0.13 | -1.22 ± 0.16
69 | CCAGAGCAAUAUUACGGUAU | -3.47 ± 0.2 | -2.75 ± 0.26
70 | GCCGAGCAAUAUUACGCCUG | -3.59 ± 0.23 | -2.03 ± 0.22
71 | ACAAAGCAAUAUUACGCAAA | -2.72 ± 0.14 | -1.6 ± 0.12
72 | AUGGAGCAAUAUUACGGCCC | -1.13 ± 0.24 | -1.43 ± 0.31
73 | UUCAAGCAAUAUUACGCAUG | -2.8 ± 0.13 | -1.7 ± 0.16
74 | UUGCAGCAAUAUUACGAUCG | -1.13 ± 0.1 | -0.473 ± 0.14
75 | AACAAGCAAUAUUACGAUAA | -1.62 ± 0.084 | -1.15 ± 0.11

Row | Sequence | self-splicing fitness (ln) (30 °C) | self-splicing fitness (ln) (37 °C)
76 | CGGGAGCAAUAUUACGCAGC | -3.21 ± 0.24 | -2.72 ± 0.43
77 | AGACAGCAAUAUUACGUUUU | -3 ± 0.13 | -3.77 ± 0.24
78 | UACCAGCAAUAUUACGCAAA | -1.54 ± 0.081 | 0.0436 ± 0.096
79 | GAGUAGCAAUAUUACGUUGG | -3.06 ± 0.25 | -3.3 ± 0.46
80 | UCGUAGCAAUAUUACGAACG | -2.5 ± 0.21 | -1.94 ± 0.23
81 | CAUGAGCAAUAUUACGCUCU | -3.71 ± 0.49 | -2.82 ± 0.31
82 | UUCCAGCAAUAUUACGCCCU | – | -2.93 ± 0.49
83 | CGCGAGCAAUAUUACGAAAA | -1.55 ± 0.43 | -3.06 ± 0.4
84 | UCAUAGCAAUAUUACGGGUG | -1.94 ± 0.093 | -0.795 ± 0.085
85 | GAUGAGCAAUAUUACGCGUA | -1.96 ± 0.29 | -1.85 ± 0.33
86 | AUGGAGCAAUAUUACGCGGA | -2.73 ± 0.29 | -1.34 ± 0.22
87 | UUGGAGCAAUAUUACGGCCU | -2.26 ± 0.29 | -1.25 ± 0.27
88 | UCGAAGCAAUAUUACGUACA | -0.691 ± 0.13 | 0.0696 ± 0.11
89 | CCGGAGCAAUAUUACGGAGU | -3.65 ± 0.2 | -3.41 ± 0.24
90 | CUCCAGCAAUAUUACGUCUU | -4.45 ± 0.28 | -2.88 ± 0.16
91 | GUGUAGCAAUAUUACGGUUC | -1.04 ± 0.13 | -0.373 ± 0.16
92 | UCCAAGCAAUAUUACGUUAA | -2.37 ± 0.12 | -0.463 ± 0.1
93 | CAUAAGCAAUAUUACGGGGC | -3.25 ± 0.26 | -1.22 ± 0.16
94 | GGUCAGCAAUAUUACGCGGA | -2.04 ± 0.47 | -2.17 ± 0.41
95 | GCGCAGCAAUAUUACGCAAG | -3.82 ± 0.23 | -2.52 ± 0.15
96 | CAGUAGCAAUAUUACGUUAC | -3.34 ± 0.47 | -2.76 ± 0.3
97 | AUGUAGCAAUAUUACGGCGG | -0.915 ± 0.19 | -1.14 ± 0.23
98 | UUAUAGCAAUAUUACGCAAC | -1.99 ± 0.34 | -1.6 ± 0.2
